Source: paper PMC5033319

Assay: recombinant expression in Sf9, not detailed
Details: glycan lost; control: initial domain III preparation, sites intact

Q: Which “other: solubility” value does the source give for “EGFR domain III (EGFRD3): N328D and N420D” here?
A: increases
